The data set concerns the molecule itself. Put plainly: turbidity.

SGYDFEREGYS [SGYDFEREGYS peptide (wild type peptide, NP 287-297)]: the binding result is “binds”.

The values above are taken from publication doi:10.1101/847608 (bioRxiv, 2019).
